Positions count from the first letter of the chain named. In names and notes the source's numbering stands.
B1: IL6R-BP256/IL6R-L (antibody, human IgG1, kappa)
heavy: QVQLQESGPGLVKPSETLSLTCAVSGHSISHDHAWSWVRQPPGEGLEWIGFISYSGITNYNPSLQGRVTISRDNSKNTLYLQMNSLRAEDTAVYYCARSLARTTAMDYWGEGTLVTVSSASTKGPSVFPLAPSSKSTSGGTAALGCLVKDYFPEPVTVSWNSGALTSGVHTFPAVLQSSGLYSLSSVVTVPSSSLGTQTYICNVNHKPSNTKVDKKVEPKSCDKTHTCPPCPAPDLLGDDDVFLFPPKPKDTLMISRTPEVTCVVVDVSDEDGEVKFNWYVDGVEVHNAKTKPREEQYNSTYRVVSVLTVLHQDWLNGKEYKCKVSNKALPRPIEKTISKAKGQPREPQVYTLPPSRDELTKNQVSLTCLVKGFYPSDIAVEWESNGQPENNYKTTPPVLDSDGSFFLYSKLTVDKSRWQQGNVFSCSVMHEALHNHYTQESLSLSP
light: not shown
notes: Homodimerized antibody, S239D in both H chains
B2: IL6R-BP257/IL6R-L (antibody, human IgG1, kappa)
heavy: B1 heavy with D241E
light: not shown
notes: Homodimerized antibody, S239E in both H chains
B3: GpH7-A5/GpH7-B3 variant L328_15Y/GpL16-k0 (heterodimerized antibody He Ab, L328Y in one H chain) (antibody, human IgG1, kappa)
heavy 1: not shown
heavy 2: not shown
light: DIVMTQSPLSLPVTPGEPASISCQASESLVHSNRNTYLHWYLQKPGQSPQLLIYKVSNRFSGVPDRFSGSGSGTDFTLKISRVEAEDVGVYYCSQNTHVPPTFGQGTKVEIERTVAAPSVFIFPPSDEQLKSGTASVVCLLNNFYPREAKVQWKVDNALQSGNSQESVTEQDSKDSTYSLSSTLTLSKADYEKHKVYACEVTHQGLSSPVTKSFNRGEC
notes: Anti-glypican-3 human IgG1-type antibody; the alteration is in only one of the two H chains (the GpH7-B3 chain)
B4: GpH7-A5/GpH7-B3 variant L328_18N/GpL16-k0 (heterodimerized antibody He Ab, L328N in one H chain) (antibody, human IgG1, kappa)
heavy 1: not shown
heavy 2: not shown
light: B3 light
notes: as for B3
B5: GpH7-A5/GpH7-B3 variant L328_20W/GpL16-k0 (heterodimerized antibody He Ab, L328W in one H chain) (antibody, human IgG1, kappa)
heavy 1: not shown
heavy 2: not shown
light: B3 light
notes: as for B3
B6: GpH7-Kn045/GpH7-Hl048/GpL16-k0 (antibody, human IgG1, kappa)
heavy 1: QVQLVQSGAEVKKPGASVTVSCKASGYTFTDYEMHWIRQPPGEGLEWIGAIDPKTGDTAYSESFQDRVTLTADKSTSTAYMELSSLTSEDTAVYYCTRFYSYTYWGQGTLVTVSSASTKGPSVFPLAPSSKSTSGGTAALGCLVKDYFPEPVTVSWNSGALTSGVHTFPAVLQSSGLYSLSSVVTVPSSSLGTQTYICNVNHKPSNTKVDKKVEPKSCDKTHTCPPCPAPEYYAGPSVFLFPPKPKDTLMISRTPEVTCVVVDVSDEDPEVKFNWYVDGVEVHNAKTKPREEQYNATYRVVSVLTVLHQDWLNGKEYKCKVSNKALPAPIEKTISKAKGQPREPQVCTLPPSRDELTKNQVSLWCLVKGFYPSDIAVEWESNGQPENNYKTTPPVLDSDGSFFLYSKLTVDKSRWQQGNVFSCSVMHEALHNHYTQKSLSLSP
heavy 2: QVQLVQSGAEVKKPGASVTVSCKASGYTFTDYEMHWIRQPPGEGLEWIGAIDPKTGDTAYSESFQDRVTLTADKSTSTAYMELSSLTSEDTAVYYCTRFYSYTYWGQGTLVTVSSASTKGPSVFPLAPSSKSTSGGTAALGCLVKDYFPEPVTVSWNSGALTSGVHTFPAVLQSSGLYSLSSVVTVPSSSLGTQTYICNVNHKPSNTKVDKKVEPKSCDKTHTCPPCPAPELLAGPDVFLFPPKPKDTLMISRTPEVTCVVVDVSHEDPEVKFNWYVDGVEVHNAKTKPREEQYNSTYRVVSVLTVLHQDWLNGKEYKCKVSNKALPKPEEKTISKAKGQPREPQVYTLPPSRCELTKNQVSLSCAVKGFYPSDIAVEWESNGQPENNYKTTPPVLDSDGSFFLVSKLTVDKSRWQQGNVFSCSVMHEALHNHYTQKSLSLSP
light: B3 light
notes: Heterodimerized antibody: knob chain L234Y/L235Y/G236A/H268D/S298A, hole chain G236A/S239D/A330K/I332E; also called Kn045/Hl048
B7: GpH7-Kn032/GpH7-Hl032/GpL16-k0 (antibody, human IgG1, kappa)
heavy 1: B6 heavy 2 with A234G, K328L, Y347C, C354D, S364W, A366L, V405Y
heavy 2: B6 heavy 2 with A234G, K328L
light: B3 light
notes: also called Kn032/Hl032
B8: GpH7-Kn045/GpH7-Hl055/GpL16-k0 (antibody, human IgG1, kappa)
heavy 1: B6 heavy 1
heavy 2: B6 heavy 2 with Q293L, K328M
light: B3 light
notes: Heterodimerized antibody: knob chain L234Y/L235Y/G236A/H268D/S298A, hole chain G236A/S239D/Q295L/A330M/I332E; also called Kn045/Hl055
B9: GpH7-Kn037/GpH7-Hl036/GpL16-k0 (antibody, human IgG1, kappa)
heavy 1: B6 heavy 2 with K328A, Y347C, C354D, S364W, A366L, V405Y
heavy 2: B6 heavy 2 with K328A
light: B3 light
notes: also called Kn037/Hl036
B10: GpH7-Kn056/GpH7-Hl055/GpL16-k0 (antibody, human IgG1, kappa)
heavy 1: B6 heavy 1 with Q293L
heavy 2: B6 heavy 2 with Q293L, K328M
light: B3 light
notes: Heterodimerized antibody: knob chain L234Y/L235Y/G236A/H268D/Q295L/S298A, hole chain G236A/S239D/Q295L/A330M/I332E; also called Kn056/Hl055

molecular target: T1, FcgRIIb (human, UniProt P31994 43-217); test: SPR (Biacore); KD of the variant for FcgRIIaR divided by its KD for FcgRIIb
T1 construct: extracellular domain; Soluble extracellular domain with C-terminal His tag, expressed in FreeStyle293 cells; also called FcγRIIb; 2b; not shown: His tag at the C terminus
T1 sequence (looked up): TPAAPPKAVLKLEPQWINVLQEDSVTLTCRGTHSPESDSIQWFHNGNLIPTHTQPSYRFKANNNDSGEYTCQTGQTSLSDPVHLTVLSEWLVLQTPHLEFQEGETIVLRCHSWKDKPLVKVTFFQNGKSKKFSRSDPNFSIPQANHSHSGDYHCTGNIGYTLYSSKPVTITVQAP

Binder | KD(IIaR)/KD(IIb)
B1 | 8.4
B2 | 3

molecular target: T2, FcγRIIb, extracellular domain with C-terminal His tag (human, UniProt P31994 43-217); test: SPR (Biacore T100), antibody captured on antigen peptide chip, FcγR as analyte; binding amount relative to control heterodimerized antibody
T2 construct: extracellular domain; also called FcgRIIb; 2b; not shown: His tag attached to the C terminus
T2 sequence (looked up): T1 sequence (looked up)
Protocol: (§1) The heterodimerized antibodies He Abs in which one of the H chains was introduced with an alteration were assayed for their binding activities to each activating FcγR and inhibitory FcγR according to the method described in Example 4. […] The activating FcγRs in FIGS. 26, 27, 28, and 29 are FcγRIa, FcγRIIa (R), FcγRIIa (H), and FcγRIIIa, respectively.
(§2) Analysis of interaction between objective antibody and the FcγR was carried out using Biacore T100 (GE Healthcare). HBS-EP+ (GE Healthcare) was used as the running buffer, and the measurement temperature was set to 25° C. Chips produced by immobilizing the antigen peptide by the amine coupling method to a Series S Sencor Chip CM5 (GE Healthcare), or alternatively, chips produced by allowing preliminarily biotinylated antigen peptides to interact with and immobilize onto a Series S Sensor Chip SA (certified) (GE Healthcare) were used. Antibodies of interest were captured onto an antigen peptide-immobilized chip, and allowed to interact to each FcγR diluted with running buffer. To regenerate and repeatedly use the chip, the antibodies captured on the chip were washed off by reacting 10 mM glycine-HCl, pH 1.5.

Binder | He/Con_2b (IIb binding)
B3 | 193 relative binding activity, GpH7-A5/GpH7-B3/GpL16-k0 = 100
B4 | 80.8 relative binding activity, GpH7-A5/GpH7-B3/GpL16-k0 = 100
B5 | 235 relative binding activity, GpH7-A5/GpH7-B3/GpL16-k0 = 100

Molecular target: T3, FcγRIIa R (FcγRIIa allotype with Arg at position 131), extracellular domain with C-terminal His tag (human, UniProt P12318 34-217)
T3 chain: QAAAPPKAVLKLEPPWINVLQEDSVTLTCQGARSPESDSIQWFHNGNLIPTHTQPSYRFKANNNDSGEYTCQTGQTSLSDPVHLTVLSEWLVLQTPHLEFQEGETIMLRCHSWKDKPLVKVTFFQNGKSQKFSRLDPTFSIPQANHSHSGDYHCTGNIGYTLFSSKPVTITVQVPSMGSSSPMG
Test: as above
Protocol: as §1, §2

Binder | He/Con_2aR (IIaR binding)
B3 | 136 relative binding activity, GpH7-A5/GpH7-B3/GpL16-k0 = 100
B4 | 59.4 relative binding activity, GpH7-A5/GpH7-B3/GpL16-k0 = 100
B5 | 155 relative binding activity, GpH7-A5/GpH7-B3/GpL16-k0 = 100

Molecular target: T3, FcγRIIa R (FcγRIIa allotype with Arg at …)
Test: SPR (Biacore T100); ratio of He/Con for FcγRIIa R to He/Con for FcγRIIb of the same antibody

Binder | He_2aR/2b (IIaR/IIb)
B3 | 0.7
B4 | 0.73
B5 | 0.66

molecular target: T1, FcgRIIb; test: SPR (Biacore), antibody captured on chip, FcgR extracellular domain as analyte

Binder | Relative KD (KD of IL6R-B3/IL6R-L divided by KD of the variant)
B1 | 35.7
B2 | 7.2

molecular target: T4, FcgRIIaR (human, UniProt P12318 34-217); test: as above
T4 construct: extracellular domain; Soluble extracellular domain with C-terminal His tag, expressed in FreeStyle293 cells; also called FcγRIIa R; FcgRIIa type R; not shown: His tag at the C terminus
T4 sequence (looked up): T3 chain

Binder | Relative KD (KD of IL6R-B3/IL6R-L divided by KD of the variant)
B1 | 1.5
B2 | 0.9

molecular target: T5, FcgRIIb (human, UniProt P31994 43-217); test: SPR (Biacore); KD of GpH7-Kn033/GpH7-Hl033/GpL16-k0 for this FcγR divided by KD of this antibody
T5 construct: extracellular domain; also called FcγRIIb; CD32B
T5 sequence (looked up): T1 sequence (looked up)
Protocol: (§3) These antibodies were assessed for the binding activity to each FcγR according to the method described in Reference Example 2.
as §2

Binder | KD ratio [fold]
B6 | 34
B7 | 8.2
B8 | 15
B9 | 16
B10 | 14

molecular target: T6, FcgRIIa H (human, UniProt P12318 34-217); test: as above
T6 construct: extracellular domain; also called FcγRIIa H; FcγRIIa type H
T6 sequence (looked up): T3 chain with R134H
Protocol: as §3, §2

Binder | KD ratio [fold]
B6 | 52
B7 | 1.2
B8 | 21
B9 | 22
B10 | 20

molecular target: T7, FcgRIa (human, UniProt P12314 16-292); test: as above
T7 construct: extracellular domain; also called FcγRIa; FcγRI
T7 sequence (P12314 16-292): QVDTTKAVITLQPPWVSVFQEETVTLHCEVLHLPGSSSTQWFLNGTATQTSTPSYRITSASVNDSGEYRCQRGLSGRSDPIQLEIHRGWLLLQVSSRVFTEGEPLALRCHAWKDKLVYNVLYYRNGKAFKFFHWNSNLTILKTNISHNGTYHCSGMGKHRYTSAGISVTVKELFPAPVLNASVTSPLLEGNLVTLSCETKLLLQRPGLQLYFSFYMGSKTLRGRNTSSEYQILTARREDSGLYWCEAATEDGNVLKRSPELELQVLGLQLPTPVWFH
Protocol: as §3, §2

Binder | KD ratio [fold]
B6 | 3.7
B7 | 24
B8 | 3.7
B9 | 6
B10 | 2.9

molecular target: T8, FcgRIIIa F (human, UniProt P08637 17-208); test: as above
T8 construct: extracellular domain; also called FcγRIIIa F; FcγRIIIaF
T8 sequence (P08637 17-208): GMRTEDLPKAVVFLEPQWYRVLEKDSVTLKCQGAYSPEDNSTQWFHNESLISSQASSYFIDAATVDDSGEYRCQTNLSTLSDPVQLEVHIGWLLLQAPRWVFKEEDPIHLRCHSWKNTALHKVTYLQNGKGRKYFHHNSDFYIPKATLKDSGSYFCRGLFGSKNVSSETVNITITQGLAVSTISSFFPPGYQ
Protocol: as §3, §2

Binder | KD ratio [fold]
B6 | 419
B7 | 381
B8 | 985
B9 | 161
B10 | 1110

molecular target: T9, FcgRIIIa V (human, UniProt P08637 17-208); test: as above
T9 construct: extracellular domain; also called FcγRIIIa V; FcγRIIIaV
T9 sequence (P08637 17-208 F176V limits assumed): as the sequence (P08637 17-208) above, with F160V counted along it
Protocol: as §3, §2

Binder | KD ratio [fold]
B6 | 170
B7 | 182
B8 | 300
B9 | 84
B10 | 327

molecular target: T10, FcgRIIa R (human, UniProt P12318 34-217); test: as above
T10 construct: extracellular domain; also called FcγRIIa R; FcγRIIa type R
T10 sequence (looked up): T3 chain
Protocol: as §3, §2

Binder | KD ratio [fold]
B6 | 154
B7 | 3
B8 | 56
B9 | 43
B10 | 44

Source: patent US20150344570A1 (published 2015)
